Measured values as given in US20030045470A1.

Molecular target: Gal4 DBD-COUP-TF fusion protein (yeast) (UniProt P04386)
Assay: cell-based or functional assay

- PGC-1 mediated activation of mutant PEPCK promoter-luciferase constructs (% of that achieved by HNF-4α): 20 to 30
Substance: PGC-1 (expressed from pCMV-PGC-1 in transfected cells) (from UniProt O70343 1-797)
